This passage reports Kd and yield of N-SCD in the pull-down (percent of the starting material) results from paper PMC2995296.

Test [1] concerns the target 5-FAM-labeled phospho-T427 peptide of the Rad9 SCD (S. cerevisiae). Nature of the test: fluorescence polarisation. (Polarisation of emitted light reports the rotation of a fluorescent probe.)
The target of test [2] is GST-BRCT (Rad9 tandem BRCT domain fused to GST), wild type (S. cerevisiae). The test can be described thus: pull-down.

Usually Kd stands for the free concentration of one partner at which half of the binding sites on the other are occupied at equilibrium, for simple one-to-one binding. Lower therefore signals tighter binding. Turning to “GST-BRCT (Rad9 tandem BRCT domain fused to GST), wild type (domain or fragment)”, the Kd in test [1] came to 78 µM.

Consider “PIKK-phosphorylated N-SCD (N-terminal fragment of Rad9-TEV-HA from MMS-treated cells) (from UniProt P14737 1-990) (domain or fragment)”, for which, in test [2], the yield of N-SCD in the pull-down (percent of the starting material) is over 10%.
